Test results published in publication PMC9600979.

What was measured:
[1] = biological target: gH-Lg CTSCR / HSV-1 gL (herpes simplex virus 1 (strain KOS)) (UniProt P10185); experiment: split reporter (BiFC, NanoBiT); live CHO effector cells transfected with the two BiT-tagged partners and the remaining HSV-1 proteins required for fusion; Endurazine substrate; luminescence every 2 min at 37°C for 1 h before and 7.5 or 8 h after adding target CHO cells with or without nectin-1; quantified as area under the curve
[2] = biological target: gH-Lg TMDEBV / HSV-1 gL (herpes simplex virus 1 (strain KOS) | Epstein-Barr virus) (UniProt P10185); experiment: as above
[3] = biological target: gH-Lg TMDEBV-CTSCR / HSV-1 gL (herpes simplex virus 1 (strain KOS) | Epstein-Barr virus) (UniProt P10185); experiment: as above
[4] = biological target: HSV-1 gH-Lg expressed without gL (herpes simplex virus 1 (strain KOS)) (UniProt P06477); experiment: split reporter (BiFC, NanoBiT); as the NanoBiT assay in live CHO cells, but in the absence of HSV-1 gL (gH stays in the ER)
Chain of UniProt P06477 (P06477 19-838): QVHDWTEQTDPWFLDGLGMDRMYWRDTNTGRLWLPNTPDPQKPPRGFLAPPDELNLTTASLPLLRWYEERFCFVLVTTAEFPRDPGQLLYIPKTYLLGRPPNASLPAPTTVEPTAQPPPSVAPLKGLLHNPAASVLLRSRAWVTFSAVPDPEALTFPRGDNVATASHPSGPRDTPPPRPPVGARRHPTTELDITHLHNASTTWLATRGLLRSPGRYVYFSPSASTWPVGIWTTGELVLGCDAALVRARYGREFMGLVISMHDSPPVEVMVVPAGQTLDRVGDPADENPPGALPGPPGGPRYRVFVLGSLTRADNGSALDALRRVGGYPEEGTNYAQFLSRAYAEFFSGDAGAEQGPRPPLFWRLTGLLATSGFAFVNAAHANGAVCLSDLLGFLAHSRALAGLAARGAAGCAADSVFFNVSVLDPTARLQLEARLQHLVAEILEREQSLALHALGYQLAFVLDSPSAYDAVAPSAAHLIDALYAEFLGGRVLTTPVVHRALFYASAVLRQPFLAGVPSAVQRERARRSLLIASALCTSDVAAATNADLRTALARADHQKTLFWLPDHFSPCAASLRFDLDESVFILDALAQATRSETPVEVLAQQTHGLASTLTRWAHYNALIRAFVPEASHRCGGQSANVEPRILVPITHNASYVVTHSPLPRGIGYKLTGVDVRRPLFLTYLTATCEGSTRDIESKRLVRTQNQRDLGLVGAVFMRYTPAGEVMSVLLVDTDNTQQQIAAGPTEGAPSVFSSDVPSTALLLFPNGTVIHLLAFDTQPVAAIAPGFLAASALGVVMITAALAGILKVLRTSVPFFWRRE

Row | Substance | percent of the interaction of WT HSV-1 gH-Lg/gL [1] [%] | percent of the interaction of WT HSV-1 gH-Lg/gL [2] [%] | percent of the interaction of WT HSV-1 gH-Lg/gL [3] [%] | fold reduction in the absence of gL (against gH-Lg/gL) [4] [fold] | percent of the interaction of WT HSV-1 gH-Lg [3] [%]
1 | HSV-1 gB-Sm (from UniProt P06437 31-904) (natural protein) | 60 | 60 | 54 | – | –
2 | HSV-1 gD-Sm (from UniProt Q69091 26-394) (natural protein) | – | – | – | 6 | 45
